Assay [1] addresses T1, VEGF (used to stimulate HUVEC cells) (UniProt P15692-4 27-191, limits assumed). The experiment in a line: cell-based or functional assay.
Assay [2] has as its target T1, VEGF (used to stimulate HUVEC cells). The experiment in a line: cell-based or functional assay. The source holds these as a separate data set.
The target of assay [3] is T2, recombinant human VEGF165 (human, UniProt P15692-4 27-191, biotinylated in the competition assays).
T2 construct: Bought protein; also called hVEGF165; rhVEGF165
The experiment in a line: binding ELISA, coated rhVEGF165. (In general: ELISA stands for enzyme-linked immunosorbent assay.)
Target sequence in this assay (P15692 other isoform, or with tags, fused parts or gaps): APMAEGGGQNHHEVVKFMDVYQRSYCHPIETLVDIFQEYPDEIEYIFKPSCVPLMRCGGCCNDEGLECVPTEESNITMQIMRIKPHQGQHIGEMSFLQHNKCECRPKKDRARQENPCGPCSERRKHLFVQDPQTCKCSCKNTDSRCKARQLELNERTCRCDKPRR

For assay [4], the target named is T3, recombinant human VEGF121 (human, UniProt P15692-9 27-147).
T3 construct: also called rhVEGF121
T3 sequence (looked up): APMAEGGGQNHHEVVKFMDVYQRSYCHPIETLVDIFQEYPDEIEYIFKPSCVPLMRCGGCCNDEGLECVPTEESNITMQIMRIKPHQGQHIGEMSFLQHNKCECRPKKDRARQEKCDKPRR
Briefly: binding ELISA, coated rhVEGF121. On the procedure: Binding to recombinant human VEGF121 is assessed via a solid phase binding ELISA. […] Wells are blocked with a casein solution (1% in PBS).

Assay [5] addresses T2, recombinant human VEGF165. The experiment in a line: ELISA, hVEGF165/hVEGFR2-Fc competition. Also on record: % inhibition: concentration or dose not given beside the values.
Assay [6] concerns the target T2, recombinant human VEGF165. The experiment in a line: ELISA, hVEGF165/hVEGFR1-Fc competition. Also on record: % inhibition: concentration or dose not given beside the values.
Target sequence in this assay (P15692 other isoform, or with tags, fused parts or gaps): as the sequence (P15692 other isoform, or with tags, fused parts or gaps) above
Assay [7] addresses T2, recombinant human VEGF165. Briefly: AlphaScreen, hVEGF165/hVEGFR1-Fc competition. On the procedure: (§1) Finally, streptavidin donor beads (20 μg/ml) are added and after 1 hour of incubation in the dark, fluorescence is measured on the Envision microplate reader.
On the technique in general: In Alpha technology, singlet oxygen from a donor bead excites a nearby acceptor bead.
Target sequence in this assay (P15692 other isoform, or with tags, fused parts or gaps): as the sequence (P15692 other isoform, or with tags, fused parts or gaps) above

In assay [8] the target is T2, recombinant human VEGF165. The experiment in a line: AlphaScreen, hVEGF165/hVEGFR2-Fc competition. On the procedure:
as §1
Target sequence in this assay (P15692 other isoform, or with tags, fused parts or gaps): as the sequence (P15692 other isoform, or with tags, fused parts or gaps) above

Assay [9] deals with T2, recombinant human VEGF165. Briefly: AlphaScreen, hVEGF165/hVEGFR2-Fc competition. Set-up: % inhibition: concentration or dose not given beside the values. The protocol:
as §1

In assay [10] the target is T2, recombinant human VEGF165. Briefly: AlphaScreen, hVEGF165/hVEGFR1-Fc competition. Also on record: % inhibition: concentration or dose not given beside the values. The protocol:
as §1
Target sequence in this assay (P15692 other isoform, or with tags, fused parts or gaps): as the sequence (P15692 other isoform, or with tags, fused parts or gaps) above

Assay [11] deals with T2, recombinant human VEGF165. Briefly: SPR Biacore, immobilised hVEGF165, two state reaction model. On the procedure: Samples are injected for 2 min and allowed to dissociate up to 20 min at a flow rate of 45 μl/min. In between sample injections, the chip surface is regenerated with 100 mM HCl. HBS-EP+(Hepes buffer pH7.4+EDTA) is used as running buffer. Binding curves are fitted using a Two State Reaction model by Biacore T100 Evaluation Software v2.0.1.
^{(a)}KD = kd1/kₐ₁ * (kd2/(kd2 + kₐ₂)) ^{(b)}Curves are fitted using a Two State Reaction model by Biacore T100 Evaluation Software v2.0.1
A general note: Surface plasmon resonance follows binding to a sensor surface in real time, without labels.
Target sequence in this assay (P15692 other isoform, or with tags, fused parts or gaps): as the sequence (P15692 other isoform, or with tags, fused parts or gaps) above

The target in assay [12] is T4, recombinant mouse VEGF164 (mouse, UniProt Q00731-2 27-190, biotinylated as the labelled ligand of the mVEGF164/mVEGFR2 AlphaScreen).
T4 construct: also called mVEGF164; rmVEGF164
T4 sequence (looked up): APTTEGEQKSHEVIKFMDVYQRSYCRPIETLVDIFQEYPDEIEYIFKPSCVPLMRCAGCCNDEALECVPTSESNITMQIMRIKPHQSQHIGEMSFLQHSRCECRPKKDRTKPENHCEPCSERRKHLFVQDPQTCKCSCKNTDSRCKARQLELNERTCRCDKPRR
Briefly: binding ELISA on coated recombinant mouse VEGF164 (Example 12.6), OD 450 nm. On the procedure: Cross-reactivity to mouse VEGF164 is determined using a binding ELISA. […] Wells are blocked with a casein solution (1% in PBS). […] A mouse VEGF164 reactive mAb is included as positive control.

Assay [13] has as its target T5, human DLL4, full length, overexpressed on cells (human, UniProt Q9NR61 27-685).
T5 construct: CHO cells in FMAT, HEK293 cells in the reporter assay; also called hDLL4; CHO-hDLL4
The experiment in a line: FMAT, hNotch1-Fc on CHO-hDLL4, -HSA.

In assay [14] the target is T5, human DLL4, full length, overexpressed …. Briefly: FMAT, hNotch1-Fc on CHO-hDLL4, +25 uM HSA.
For assay [15], the target named is T2, recombinant human VEGF165. The experiment in a line: AlphaScreen, hVEGF165/hVEGFR1-Fc competition, -HSA.
The target in assay [16] is T2, recombinant human VEGF165. Briefly: AlphaScreen, hVEGF165/hVEGFR2-Fc competition, -HSA.
For assay [17], the target named is T2, recombinant human VEGF165. The experiment in a line: AlphaScreen, hVEGF165/hVEGFR2-Fc competition, +5 uM HSA. The protocol: These 2 competition assays are also performed after preincubation of the VHHs with 5 μM human serum albumin.

T1 sequence (P15692 other isoform, or with tags, fused parts or gaps limits assumed): as the sequence (P15692 other isoform, or with tags, fused parts or gaps) above

B1: VEGFBII024 (VHH, not shown: small tags and cut ends)
chain: EVQLVESGGGLVQTGDSLRLSCEVSGRTFSSYSMGWFRQAQGKEREFVVAISKGGYKYDSVSLEGRFTISKDNAKNTVYLQINSLKPEDTAVYYCASSRAYGSSRLRLADTYEYWGQGTQVTVSSGGGGSGGGGSGGGGSGGGGSGGGGSGGGGSGGGGSGGGGSEVQLVESGGGLVQAGGSLRLSCTASGSAFKSYRMGWFRRTPGKEDEFVASISWTYGSTFYADSVKGRFTMSRDKAKNAGYLQMNSLKPEDTALYYCAAGAQSDRYNIRSYDYWGQGTQVTVSS
notes: Bivalent anti-VEGF VHH; also called VEGFBII23B04-40GS-86H09
For orientation: EC50 means the concentration that produces a half-maximal response. A word on the % inhibition: it is the change of the read-out against control, counted positive when it falls. The IC50 is the concentration at which inhibition is half-maximal. The Kd is a measure of binding affinity in units of concentration. On to B1, for which, in assay [1], the “% inhibition, VEGF HUVEC proliferation assay” value came out at 96% and the “IC50, VEGF HUVEC proliferation assay” value worked out at 0.38 nM. For the same molecule, in assay [2], the “% inhibition, VEGF HUVEC Erk phosphorylation assay” value is 94% and the “IC50, VEGF HUVEC Erk phosphorylation assay” value turned out to be 0.23 nM. Further, in [3], the EC50 was determined as 0.32 nM. The EC50 in [4] worked out at 0.325 nM. In assay [5], the “% inhibition” value was found to be 100% and the IC50 worked out at 0.292 nM. Also, in assay [6], the “% inhibition” value was determined as 92% and the IC50 amounted to 0.326 nM. In [7], the “% inhibition” value turned out to be 100% and the IC50 was found to be 0.046 nM. In [8], the concentration for half-maximal inhibition (IC50) turned out to be 0.012 nM. In assay [9], the “% inhibition” value is 100% and the IC50 stood at 0.05 nM. In assay [10], the “% inhibition” value was 98% and the half-inhibitory concentration (IC50) is 0.069 nM. Further, in assay [11], the Kd is 0.47 nM, the ka1 was found to be 300000 M⁻¹ s⁻¹, the ka2 was 0.026 s⁻¹ and the kd1 was determined as 0.013 s⁻¹. Besides, the kd2 in [11] stood at 0.00028 s⁻¹. Also, the binding result in assay [12] is on record as “binds”.

B2: VEGFBII025 (VHH, not shown: small tags and cut ends)
chain: EVQLVESGGGLVQAGGSLRLSCAASGRTFSNYAMGWFRQAPGKERVLVADISSSGINTYVADAVKGRFTISRDNAKNTVYLQMNSLKPEDTAVYYCAASAWWYSQMARDNYRYWGQGTQVTVSSGGGGSGGGGSGGGGSGGGGSGGGGSGGGGSGGGGSGGGGSEVQLVESGGGLVQTGDSLRLSCEVSGRTFSSYSMGWFRQAQGKEREFVVAISKGGYKYDSVSLEGRFTISKDNAKNTVYLQINSLKPEDTAVYYCASSRAYGSSRLRLADTYEYWGQGTQVTVSS
notes: Bivalent anti-VEGF VHH; also called VEGFBII10E07-40GS-23B04
Consider B2, for which, in [2], the “% inhibition, VEGF HUVEC Erk phosphorylation assay” value is 99% and the “IC50, VEGF HUVEC Erk phosphorylation assay” value came to 0.23 nM. Also, the EC50 in assay [3] was 0.668 nM. Moreover, the EC50 in [4] was 0.475 nM. In addition, in assay [5], the “% inhibition” value was 100% and the IC50 came to 0.577 nM. In assay [7], the “% inhibition” value amounted to 82% and the IC50 was 0.039 nM. Moreover, the concentration for half-maximal inhibition (IC50) in assay [8] came out at 0.051 nM. In assay [9], the “% inhibition” value turned out to be 100% and the IC50 was found to be 0.051 nM. Further, in assay [10], the “% inhibition” value was determined as 82% and the IC50 turned out to be 0.071 nM. In assay [11], the Kd was determined as 1.1 nM, the ka1 worked out at 330000 M⁻¹ s⁻¹, the ka2 stood at 0.018 s⁻¹ and the kd1 was 0.017 s⁻¹. Moreover, the kd2 in [11] worked out at 0.00037 s⁻¹. For the same molecule, the binding result in assay [12] was “binds”.

B3: VEGFBII010 (VHH, not shown: small tags and cut ends)
chain: EVQLVESGGGLVQTGDSLRLSCEVSGRTFSSYSMGWFRQAQGKEREFVVAISKGGYKYDSVSLEGRFTISKDNAKNTVYLQINSLKPEDTAVYYCASSRAYGSSRLRLADTYEYWGQGTQVTVSSGGGGSGGGGSGGGGSGGGGSGGGGSGGGGSGGGGSEVQLVESGGGLVQTGDSLRLSCEVSGRTFSSYSMGWFRQAQGKEREFVVAISKGGYKYDSVSLEGRFTISKDNAKNTVYLQINSLKPEDTAVYYCASSRAYGSSRLRLADTYEYWGQGTQVTVSS
notes: Homodimeric bivalent anti-VEGF VHH; also called VEGFBII23B04-35GS-23B04
In the case of B3, in assay [1], the “% inhibition, VEGF HUVEC proliferation assay” value amounted to 95% and the “IC50, VEGF HUVEC proliferation assay” value is 0.22 nM. Moreover, in [2], the “% inhibition, VEGF HUVEC Erk phosphorylation assay” value was determined as 92% and the “IC50, VEGF HUVEC Erk phosphorylation assay” value is 0.19 nM. Further, the EC50 in assay [3] came out at 0.428 nM. Also, the EC50 in [4] stood at 0.92 nM. In [5], the “% inhibition” value came to 100% and the half-inhibitory concentration (IC50) was determined as 0.049 nM. Besides, in [6], the “% inhibition” value came out at 67% and the IC50 worked out at 0.0735 nM. In assay [9], the “% inhibition” value is 100% and the IC50 came out at 0.016 nM. In assay [10], the “% inhibition” value amounted to 70% and the IC50 was 0.021 nM. In addition, in assay [11], the Kd was 0.16 nM, the ka1 is 450000 M⁻¹ s⁻¹, the ka2 worked out at 0.029 s⁻¹ and the kd1 came to 0.017 s⁻¹. For the same molecule, the kd2 in [11] turned out to be 0.00013 s⁻¹. For the same molecule, in [12], the binding result is “binds”.

B4: VEGFDLLBII001 (bispecific antibody)
chain: EVQLVESGGGLVQAGGSLRLSCAASGRTFSSYAMAWFRQAPGKEREFVAAIRWSGGTAYYADSVQGRFTISRDNAKNTVYLQMNSLKPEDTAVYYCANRAADTRLGPYEYDYWGQGTQVTVSSGGGGSGGGGSGGGGCGGGGSGGGGSGGGGSGGGGSEVQLVESGGGLVQTGDSLRLSCEVSGRTFSSYSMGWFRQAQGKEREFVVAISKGGYKYDSVSLEGRFTISKDNAKNTVYLQINSLKPEDTAVYYCASSRAYGSSRLRLADTYEYWGQGTQVTVSS
modifications: PEGylated at the Cys at position 15 of the 35 Gly-Ser linker
notes: DLLBII101G08 - 35GS(Cys15) - VEGFBII23B04
With B4, the IC50 in assay [13] is 128 nM; in assay [14], 122 nM; in assay [15], 1.58 nM; in assay [16] it was 0.64 nM; in assay [17], 0.64 nM. Further, the “% inh” value in assay [15] was found to be 69%; in [16], 100%; in [17], 100%.

B5: VEGFDLLBII002 (bispecific antibody)
chain: EVQLVESGGGLVQTGDSLRLSCEVSGRTFSSYSMGWFRQAQGKEREFVVAISKGGYKYDSVSLEGRFTISKDNAKNTVYLQINSLKPEDTAVYYCASSRAYGSSRLRLADTYEYWGQGTQVTVSSGGGGSGGGGSGGGGCGGGGSGGGGSGGGGSGGGGSEVQLVESGGGLVQAGGSLRLSCAASGRTFSSYAMAWFRQAPGKEREFVAAIRWSGGTAYYADSVQGRFTISRDNAKNTVYLQMNSLKPEDTAVYYCANRAADTRLGPYEYDYWGQGTQVTVSS
modifications: PEGylated at the Cys at position 15 of the 35 Gly-Ser linker
notes: VEGFBII23B04 - 35GS(Cys15) - DLLBII101G08
As for B5, the half-maximal inhibitory concentration (IC50) came to 106 nM in assay [13]; 120 nM in assay [14]; 0.36 nM in assay [15]; 0.2 nM in [16]; 0.24 nM in assay [17]. The “% inh” value was determined as 64% in assay [15], 100% in assay [16] and 100% in assay [17].

B6: DLLBII101G08 (VHH, not shown: small tags and cut ends)
VHH: EVQLVESGGGLVQAGGSLRLSCAASGRTFSSYAMAWFRQAPGKEREFVAAIRWSGGTAYYADSVQGRFTISRDNAKNTVYLQMNSLKPEDTAVYYCANRAADTRLGPYEYDYWGQGTQVTVSS
notes: Anti-DLL4 VHH; also called 101G8
Turning to B6, the IC50 was 31 nM in [13] and 30.1 nM in assay [14].

Source of the values: US20140120095A1 (Boehringer Ingelheim, published 2014).
